Measured values: paper PMC11754618 (2025)
Residue numbers refer to the chain shown, from its start.

T1: His6-Mm.USP18 (46-368) (mouse, UniProt Q9WTV6 46-368)
T1 chain: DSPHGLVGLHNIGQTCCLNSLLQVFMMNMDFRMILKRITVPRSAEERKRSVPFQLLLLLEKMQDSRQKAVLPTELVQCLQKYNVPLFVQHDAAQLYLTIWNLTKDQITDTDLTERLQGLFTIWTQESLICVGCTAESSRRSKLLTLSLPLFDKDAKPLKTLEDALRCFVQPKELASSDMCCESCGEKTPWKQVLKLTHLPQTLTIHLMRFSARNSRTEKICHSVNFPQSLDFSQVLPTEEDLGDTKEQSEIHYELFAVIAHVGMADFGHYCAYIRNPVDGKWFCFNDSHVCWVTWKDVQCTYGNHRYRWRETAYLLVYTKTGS

T2: His6-Hs.USP18 (16-372) (human, UniProt Q9UMW8 16-372)
T2 chain: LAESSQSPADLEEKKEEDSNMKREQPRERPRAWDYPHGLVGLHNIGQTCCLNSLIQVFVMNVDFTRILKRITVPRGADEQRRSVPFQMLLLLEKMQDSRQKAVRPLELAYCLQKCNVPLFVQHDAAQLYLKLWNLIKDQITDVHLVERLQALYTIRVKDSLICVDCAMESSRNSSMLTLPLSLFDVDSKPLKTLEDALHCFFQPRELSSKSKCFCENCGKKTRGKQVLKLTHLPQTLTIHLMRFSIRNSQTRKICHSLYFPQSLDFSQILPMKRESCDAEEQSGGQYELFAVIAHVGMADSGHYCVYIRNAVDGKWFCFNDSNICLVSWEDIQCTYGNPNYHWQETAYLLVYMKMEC

B1: Ac-mISG15CTD[R153Phe(guan)]-OH (domain or fragment)
chain: LSILVRNERGHSNIYEVFLTQTVDTLKKKVSQREQVHEDQFWLSFEGRPMEDKELLGEYGLKPQSTVIKHLRLFG
modifications: N-terminal acetyl; Phe(guan) (guanidino-phenylalanine) at 153
B2: Ac-mISG15CTD[R153Agb]-OH (domain or fragment)
chain: B1 chain with F74X
modifications: N-terminal acetyl; Agb (2-amino-4-guanidino-butyric acid) at 153
B3: Ac-mISG15CTD-OH (wild type) (domain or fragment)
chain: B1 chain with F74R
modifications: N-terminal acetyl

Tests used:
[1] = target: T1, His6-Mm.USP18 (46-368); test: SPR
[2] = target: T2, His6-Hs.USP18 (16-372); test: SPR

Binder	Kd [1]	Kd [2]
B1	1750 nM	1900 nM
B2	4500 nM	1200 nM
B3	2500 nM	4300 nM
